Reference: PMC4867592, “Targeting multiple response regulators of Mycobacterium tuberculosis augments the host immune response to infection” (Scientific Reports, 2016)
Residue numbers refer to the chain shown, from its start.

Key:
Assay in all cases: EMSA
RegX3 K204A K204A = molecular target: T1, RegX3 K204A K204A (UniProt P9WGL9)
T1 sequence: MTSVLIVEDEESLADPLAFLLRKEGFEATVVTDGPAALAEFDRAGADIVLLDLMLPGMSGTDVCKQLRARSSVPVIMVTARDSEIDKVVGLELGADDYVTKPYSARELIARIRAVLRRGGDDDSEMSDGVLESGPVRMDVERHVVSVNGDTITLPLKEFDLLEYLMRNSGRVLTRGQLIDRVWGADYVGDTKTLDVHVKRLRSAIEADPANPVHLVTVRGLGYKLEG

RegX3 R202A R202A = molecular target: T2, RegX3 R202A R202A (UniProt P9WGL9)
T2 sequence: T1 sequence with R202A, A204K

RegX3 L201A L201A = molecular target: T3, RegX3 L201A L201A (UniProt P9WGL9)
T3 sequence: T1 sequence with L201A, A204K

ACCGGCTTGGGACCGGCACCGCGGTACTGTGTGCGTTCGGCACCGCGCTGCACCCGCGGTTCGGGCCGGATTCGTCCGCGCGGCACCGCCGTTCGGGCGC (double strand) [ppK1 promoter fragment]
binding (RegX3 K204A K204A): no binding | binding (RegX3 R202A R202A): binds | binding (RegX3 L201A L201A): no binding
